Assay results published in article PMC4851370, “The N-Terminus of the Floral Arabidopsis TGA Transcription Factor PERIANTHIA Mediates Redox-Sensitive DNA-Binding”.
Positions count from the first letter of the chain named.

B1: AAGAAT (dsDNA)
DNA 1: AAGAATCTTTGATCACGTCATCACTCAGATATT
DNA 2: AATATCTGAGTGATGACGTGATCAAAGATTCTT
B2: ΔbZIP (dsDNA)
DNA 1: B1 DNA 1 with C16A, G17A
DNA 2: B1 DNA 2 with C17T, G18T

What was measured:
Conditions in all cases: protein: ivt; tags: none; chain copies: 2; label: 5' 32P; blunt
PANΔN = target: T1, PANΔN (Arabidopsis thaliana, UniProt Q9SX27 167-452, del1-166); assay: EMSA; 2 mM diamide; no reduction; EMSA as in cited ref 20 (buffer, salt, pH, temperature not given); with or without 0.9 or 20 mM DTT or 2 mM diamide, 30 min in the dark before probe addition
T1 sequence: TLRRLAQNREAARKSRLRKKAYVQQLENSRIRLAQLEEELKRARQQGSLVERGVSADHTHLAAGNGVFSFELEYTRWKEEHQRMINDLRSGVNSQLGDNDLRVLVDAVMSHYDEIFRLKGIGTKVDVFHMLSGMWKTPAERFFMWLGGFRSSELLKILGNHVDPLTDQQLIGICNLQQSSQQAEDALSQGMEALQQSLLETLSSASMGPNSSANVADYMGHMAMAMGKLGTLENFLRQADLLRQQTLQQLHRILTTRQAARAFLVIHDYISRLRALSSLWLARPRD

TGA2 = target: T2, TGA2 (Arabidopsis thaliana, UniProt P43273 1-330); assay: EMSA; 0.9 mM DTT; EMSA as in cited ref 20 (buffer, salt, pH, temperature not given); with or without 0.9 or 20 mM DTT or 2 mM diamide, 30 min in the dark before probe addition
T2 sequence: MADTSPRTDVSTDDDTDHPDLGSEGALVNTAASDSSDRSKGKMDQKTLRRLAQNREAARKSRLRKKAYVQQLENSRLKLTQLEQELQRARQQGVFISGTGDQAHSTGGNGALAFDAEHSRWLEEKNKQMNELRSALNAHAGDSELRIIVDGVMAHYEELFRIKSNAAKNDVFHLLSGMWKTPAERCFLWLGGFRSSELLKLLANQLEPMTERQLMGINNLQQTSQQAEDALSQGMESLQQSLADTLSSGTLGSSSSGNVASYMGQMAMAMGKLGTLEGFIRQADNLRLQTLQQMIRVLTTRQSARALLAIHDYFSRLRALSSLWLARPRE

TGA10 = target: T3, TGA10 (Arabidopsis thaliana, UniProt E3VNM4 1-460); assay: as above
T3 sequence: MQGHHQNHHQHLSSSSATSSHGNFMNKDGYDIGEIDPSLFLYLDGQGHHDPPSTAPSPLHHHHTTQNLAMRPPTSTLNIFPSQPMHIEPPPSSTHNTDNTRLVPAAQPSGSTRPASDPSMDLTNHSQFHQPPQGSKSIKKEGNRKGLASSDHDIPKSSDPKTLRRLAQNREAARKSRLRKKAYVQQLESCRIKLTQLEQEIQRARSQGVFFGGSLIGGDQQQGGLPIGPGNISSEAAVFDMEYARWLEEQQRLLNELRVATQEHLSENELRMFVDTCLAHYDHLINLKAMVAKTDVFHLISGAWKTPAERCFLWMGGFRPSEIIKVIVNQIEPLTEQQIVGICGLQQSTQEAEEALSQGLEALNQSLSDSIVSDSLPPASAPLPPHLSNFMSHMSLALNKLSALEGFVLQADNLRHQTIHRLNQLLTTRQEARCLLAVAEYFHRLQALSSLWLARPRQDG

PANC68SC87S = target: T4, PANC68SC87S (Arabidopsis thaliana, UniProt Q9SX27 1-452, C68S;C87S); assay: as above
T4 sequence: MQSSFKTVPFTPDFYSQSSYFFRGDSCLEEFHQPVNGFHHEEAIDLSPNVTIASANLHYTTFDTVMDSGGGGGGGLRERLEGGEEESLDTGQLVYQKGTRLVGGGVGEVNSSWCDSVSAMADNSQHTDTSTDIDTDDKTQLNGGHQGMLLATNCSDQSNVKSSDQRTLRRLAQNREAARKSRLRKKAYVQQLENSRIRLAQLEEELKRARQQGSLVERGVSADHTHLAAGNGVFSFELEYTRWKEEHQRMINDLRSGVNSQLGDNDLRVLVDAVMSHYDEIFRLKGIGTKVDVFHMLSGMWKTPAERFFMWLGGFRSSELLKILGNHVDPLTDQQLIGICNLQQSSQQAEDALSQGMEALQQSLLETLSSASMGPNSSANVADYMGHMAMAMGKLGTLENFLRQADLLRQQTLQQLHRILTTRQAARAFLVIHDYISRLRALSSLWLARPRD

TGA1 = target: T5, TGA1 (Arabidopsis thaliana, UniProt Q39237 1-368); assay: as above
T5 sequence: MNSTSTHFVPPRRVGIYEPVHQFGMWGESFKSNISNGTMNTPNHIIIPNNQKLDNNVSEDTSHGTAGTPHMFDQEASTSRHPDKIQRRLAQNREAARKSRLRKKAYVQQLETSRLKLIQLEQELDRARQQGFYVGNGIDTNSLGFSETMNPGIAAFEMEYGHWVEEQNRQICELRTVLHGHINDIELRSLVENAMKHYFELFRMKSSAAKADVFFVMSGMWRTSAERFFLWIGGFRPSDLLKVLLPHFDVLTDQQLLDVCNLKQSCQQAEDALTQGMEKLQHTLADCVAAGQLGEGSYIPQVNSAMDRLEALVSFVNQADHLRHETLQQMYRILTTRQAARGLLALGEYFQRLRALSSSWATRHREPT

TGA3 = target: T6, TGA3 (Arabidopsis thaliana, UniProt Q39234 1-384); assay: as above
T6 sequence: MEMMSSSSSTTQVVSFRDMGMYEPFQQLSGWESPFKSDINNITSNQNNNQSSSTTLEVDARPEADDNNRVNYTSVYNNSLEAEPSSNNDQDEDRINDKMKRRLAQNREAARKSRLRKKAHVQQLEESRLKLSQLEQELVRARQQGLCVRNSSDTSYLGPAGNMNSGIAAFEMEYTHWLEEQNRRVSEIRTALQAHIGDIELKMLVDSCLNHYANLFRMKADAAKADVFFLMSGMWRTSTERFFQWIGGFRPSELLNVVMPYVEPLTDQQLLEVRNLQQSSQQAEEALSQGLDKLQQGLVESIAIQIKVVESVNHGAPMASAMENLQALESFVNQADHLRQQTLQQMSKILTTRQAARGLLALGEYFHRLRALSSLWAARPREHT

… (PAN) = target: T7, … (PAN) (Arabidopsis thaliana, UniProt Q9SX27 1-452); assay: EMSA; EMSA as in cited ref 20 (buffer, salt, pH, temperature not given); with or without 0.9 or 20 mM DTT or 2 mM diamide, 30 min in the dark before probe addition
T7 sequence: T4 sequence with S68C, S87C

[1] = target: T8, PANC27SC68SC87SC114SC154S (Arabidopsis thaliana, UniProt Q9SX27 1-452, C27S;C68S;C87S;C114S;C154S); assay: EMSA; 2 mM diamide; no inhibition; EMSA as in cited ref 20 (buffer, salt, pH, temperature not given); with or without 0.9 or 20 mM DTT or 2 mM diamide, 30 min in the dark before probe addition
T8 sequence: T4 sequence with C27S, C114S, C154S

[2] = target: T9, PANC27SC68SC87SC114SC154SC340S (PAN6xCysmut) (Arabidopsis thaliana, UniProt Q9SX27 1-452, C27S;C68S;C87S;C114S;C154S;C340S); assay: as above
T9 sequence: T4 sequence with C27S, C114S, C154S, C340S

Row | Binder | binding result (PANΔN) | binding result (TGA2) | binding result (TGA10) | binding result (PANC68SC87S) | binding result (TGA1) | binding result (TGA3) | binding result (… (PAN)) | binding result [1] | binding result [2]
1 | B1 | binds | binds | binds | binds | binds | binds | binds | binds | binds
2 | B2 |  |  |  |  |  |  | no binding |  | 
